# Patent US20200025774A1 (ENTEROME S A, published 2020)
# Target: T1, HLA-A*0201 molecule expressed on human T2 cells (human)
# T1 construct: also called HLA.A2.01
# Assay: T2 cell HLA-A*0201 stabilisation assay, flow cytometry; ratio of the peptide concentrations inducing 20% of HLA-A*0201 expression
# Description: T2 cells (2.10⁵ cells per well) were incubated with decreasing concentrations of peptides from 100 μM to 0.1 μM in a AIMV medium supplemented with 100 ng/μl of human β2m at 37° C. for 16 hours.
# The analysis was performed by FACS (Guava Easy Cyte). […] The relative affinity is then determined as follows:
row,Binder,In vitro binding affinity (relative affinity against reference peptide HIV pol 589-597)
1,ILPFGFILA [peptide 1I9A],2.22
2,ALPFGFILV [peptide 1A9V],3.06
3,FLPFGFILM [peptide 1F9M],2.62
